Data from US12508311B2, “Fusion protein, and preparation method and use thereof” (SUN YAT-SEN UNIVERSITY, priority 2021, dated 2025).

Legend:
[1] = test system: KRas mutant-type (HCT116) colorectal cancer; test: In-vivo tumor formation experiment, HCT116 subcutaneous tumor; set-up: species or system mice; conditions: seven times
Protocol: • (1) Balb/c nude mice, female, 4 weeks to 5 weeks old, purchased from Guangdong Laboratory Animal Center and raised in Laboratory Animal Center of Sun Yat-sen University, were used in this experiment. […] After counting, 7.5 million HT29 and HCT116 cells were taken respectively, washed twice with PBS, centrifuged at 300 g for 5 minutes after fishing each washing, and collected. • (3) The cell dilution buffer solution having the composition of PBS: matrix glue (Corning Company)=1:1 was prepared to resuspend the cells. […] In the experiment, the administration volume was 150 μL, the administration frequency was once every three days at a fixed time, and the administration was continued for seven times. • (6) After the administration, each mouse was injected with 150 μL of tribromoethanol, and then killed by cervical dislocation. […]
• (1) Balb/c nude mice, female, 4 weeks to 5 weeks old, purchased from Guangdong Laboratory Animal Center and raised in Laboratory Animal Center of Sun Yat-sen University, were used in this experiment. The experimental mice were divided into two groups, with five mice in each group, which were respectively a phosphate buffer solution (PBS) control group and a […]. • (2) The HT29 and HCT116 cells in the logarithmic phase were digested with pancreatin, the digestion was stopped with the complete culture solution, and then the cells were counted. […]

[2] = molecular target: T1, KRas protein in HT29 (KRas wt) cells (Homo sapiens, UniProt P01116); test: Co-immunoprecipitation (Co-IP) in HT29 cells; format: cell-based; conditions: 20 μg/mL, 24 hours, Lys05 10 μM
T1 construct: host or cells: HT29
Protocol: The co-immunoprecipitation experiment (Co-IP) was an important means to detect the intracellular interaction of the protein. […] The experiment was carried out in the presence of the lysosome inhibitor Lys05 with a final concentration of 10 μM. • (2) The cells were cultured and treated at 37° C. for 24 hours, and then cleaned twice with PBS, and 1 mL of 0.25% pancreatin was added into each culture dish to digest the cells and make the cells fall off from the culture dish wall. Then, 2 mL of complete culture solution was added into each culture dish to stop the digestion , centrifuged at the room temperature and 300 g for 3 minutes, to collect the cells. […] The colorectal cancer cells were lysed on ice, turned upside down for several times every 5 minutes gently without vortex, and centrifuged at 4° C. and 12,000 rpm for 30 minutes after being lysed for 30 minutes. • (4) The supernatant was transferred to a new EP tube, the protein concentration was measured by the BCA method, and then 1 mg of protein was taken from each group for a Co-IP reaction. […] Meanwhile, 30 μL of protein sample was also taken from the Input group, vortically vibrated for 1 minute, boiled in boiled water for 10 minutes, and centrifuged, and the supernatant was collected in a new 1.5 mL EP tube. • (8) The protein concentration was measured by the BCA method. […]

[3] = Residence time in vivo (serum western blot); set-up: species or system mice
Protocol: • (1) Balb/c nude mice, female, 4 weeks to 5 weeks old, purchased from Guangdong Laboratory Animal Center and raised in Laboratory Animal Center of Sun Yat-sen University, were used in this experiment. […] The serum protein concentration was measured by the BCA method (as described above). 20 μg of serum protein was respectively taken for the WB experiment (as described above), and whole serum protein gel running and Coomassie brilliant blue staining. • (4) Experimental results were shown in FIG. 19.

B1: TKD: fusion protein: tumour-cell-penetrating peptide BR2, anti-KRas nanobody VHH and lysosome recognition peptide CTM; SEQ ID NO.4 (protein)
chain: RAGLQFPVGRLLRRLLRDVQLQESGGGLVQAGGSLRLSCVASGRTFSTYPTGWFRQAPGKEREFVARINLSGGITNYADSVKGRFTISRDNAKNTVYLQMNSLKPEDTAVYYCGGGSTTWAGGIPTNFDYWGQGTQVTVSSGRKFERQKILDQRFFE
inhibition of tumor growth (tumor weight) ([1]; TKD 25 and 50 mg/kg intraperitoneal, once every three days, vs PBS): could significantly inhibit the growth
tumor growth inhibition, TKD-50 mg/kg group compared with TKD-25 mg/kg group ([1]; intraperitoneal): had a better effect than the TKD-25 mg/kg group
binding to KRas protein in cells (Co-IP) [2]: could pass through the cell membrane and bind to the wild-type and mutant-type KRas proteins in cells without discrimination
detection in serum after administration (western blot) ([3]; 50 mg/kg intraperitoneal once, 3 days after administration): could still be detected
half-life period in vivo ([3]; inferred from serum detection 3 days after 50 mg/kg): long
